Measurements as given in EP1192182B1, “PITUITARY ADENYLATE CYCLASE ACTIVATING PEPTIDE (PACAP) RECEPTOR 3 (R3) AGONISTS AND THEIR PHARMACOLOGICAL METHODS OF USE” (priority 1999, dated 2001).
No end group written: not given here.

T1: PACAP-R3 (human, UniProt P41587 24-438)
T1 sequence (looked up): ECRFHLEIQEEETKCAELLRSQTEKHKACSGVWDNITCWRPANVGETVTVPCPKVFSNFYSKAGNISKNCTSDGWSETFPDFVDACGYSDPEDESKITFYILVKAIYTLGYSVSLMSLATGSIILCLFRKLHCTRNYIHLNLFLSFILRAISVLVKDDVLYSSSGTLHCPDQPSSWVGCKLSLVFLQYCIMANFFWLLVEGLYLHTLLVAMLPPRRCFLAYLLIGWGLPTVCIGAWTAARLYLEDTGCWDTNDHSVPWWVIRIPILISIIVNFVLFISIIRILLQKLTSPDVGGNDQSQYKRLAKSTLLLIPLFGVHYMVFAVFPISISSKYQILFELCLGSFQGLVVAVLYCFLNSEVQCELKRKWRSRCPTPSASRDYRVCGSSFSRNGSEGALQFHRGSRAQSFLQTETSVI


Biological target: T1, PACAP-R3
Assay: cell-based or functional assay

R3 Selectivity [ratio] | R3 EC50 [nM] | Binder
100 |  | HSDAVFTDNYTRLRKQVAVKKYLQSIKKK [R3P81]
20 |  | HSDAVFTDNYTRLRKQMAVKKYLNSIKKGGT [R3P9]
23 |  | HSDAVFTDNYTRLRKQVAVKKYLQSIKNKRY [R3P82]
60 |  | HSDAVFTDNYTRLRKQVAAKKYLQSILKKRY [R3P83]
40 |  | HSDAVFTDNYTRLRKQVAAKKYLQSILKKR [R3P84]
30 |  | HSDAVFTDNYTRLRKQVAAKKYLQSILKK [R3P85]
110 |  | HSDAVFTDNYTRLRKQVAAKKYLQSIKNK [R3P86]
3 |  | HSDAVFTDNYTRLRKQVAVKKYLQSILKKRY [R3P87]
12 |  | HSDAVFTDNYTRLRKQVAVKKYLQSILKKR [R3P88]
15 |  | HSDAVFTDNYTRLRKQVAVKKYLQSILKK [R3P89]
100 | 0.02 | HSDAVFTDNYTRLRKQVAAKKYLQSILNKR [R3P92]
40 | 0.14 | HSDAVFTDNYTRLRKQVAAKKYLQSILNK [R3P93]
0.3 |  | HSDAVFTENYTKLRKQLAAKKYLNDLLNGGT [R3P10]
100 | 0.09 | HSDAVFTDNYTRLRKQMACKKYLNSIKNKR [R3P94]
40 | 1 | HSDAVFTDNYTRLRKQMAFKKYLNSIKNKR [R3P99]
30 | 0.3 | HSDAVFTDNYTRLRKQMAGKKYLNSIKNKR [R3P100]
400 | 1 | HSDAVFTDNYTRLRKQMAHKKYLNSIKNKR [R3P101]
5 | 60 | HSDAVFTDNYTRLRKQMAIKKYLNSIKNKR [R3P102]
8 | 0.05 | HSDAVFTDNYTRLRKQMAKKKYLNSIKNKR [R3P103]
500 | 0.2 | HSDAVFTDNYTRLRKQMALKKYLNSIKNKR [R3P104]
 | 0.3 | HSDAVFTDNYTRLRKQMAMKKYLNSIKNKR [R3P105]
5 | 200 | HSDAVFTDNYTRLRKQMAPKKYLNSIKNKR [R3P107]
3 |  | HSDAVFTDNYTKLRKQLAAKKYLNDILNGGT [R3P11]
3 | 300 | HSDAVFTDNYTRLRKQMAQKKYLNSIKNKR [R3P108]
100 | 10 | HSDAVFTDNYTRLRKQMARKKYLNSIKNKR [R3P109]
200 | 0.5 | HSDAVFTDNYTRLRKQMASKKYLNSIKNKR [R3P110]
 | 3 | HSDAVFTDNYTRLRKQMATKKYLNSIKNKR [R3P111]

R3 Selectivity [ratio] | R3 EC50 [nM] | Binder
10 | 0.3 | HSDAVFTDNYTRLRKQMAWKKYLNSIKNKR [R3P113]
10 | 2 | HSDAVFTDNYTRLRKQMAYKKYLNSIKNKR [R3P114]
50 | 6 | HSDAVFTDNYTRLRKQMAAKKYLNSIANKR [R3P115]
20 | 1 | HSDAVFTDNYTRLRKQMAAKKYLNSICNKR [R3P116]
> 200 |  | HSDAVFTDNYTRLRKQLAAKKYLNDIKKGGT [R3P12]
30 |  | HSDAVFTDNYTRLRKQMAAKKYLNSIENKR [R3P118]
30 | 0.5 | HSDAVFTDNYTRLRKQMAAKKYLNSIFNKR [R3P119]
50 | 0.2 | HSDAVFTDNYTRLRKQMAAKKYLNSIGNKR [R3P120]
50 | 1 | HSDAVFTDNYTRLRKQMAAKKYLNSIHNKR [R3P121]
 | 0.2 | HSDAVFTDNYTRLRKQMAAKKYLNSIINKR [R3P122]
15 | 0.2 | HSDAVFTDNYTRLRKQMAAKKYLNSINNKR [R3P124]
30 | 2 | HSDAVFTDNYTRLRKQMAAKKYLNSIPNKR [R3P125]
200 | 1 | HSDAVFTDNYTRLRKQMAAKKYLNSIQNKR [R3P126]
600 | 0.5 | HSDAVFTDNYTRLRKQMAAKKYLNSIRNKR [R3P127]
200 | 0.3 | HSDAVFTDNYTRLRKQMAAKKYLNSISNKR [R3P128]
33 |  | HSDAVFTDNYTRLRKQLAAKKYLNDIKK-NH2 [R3P13]
50 |  | HSDAVFTDNYTRLRKQMAAKKYLNSITNKR [R3P129]
40 | 1 | HSDAVFTDNYTRLRKQMAAKKYLNSIVNKR [R3P130]
70 | 0.3 | HSDAVFTDNYTRLRKQMAAKKYLNSIWNKR [R3P131]
 | 0.2 | HSDAVFTDNYTRLRKQMAAKKYLNSIYNKR [R3P132]
100 | 0.4 | HSDAVFTDNYTRLRKQMAAKKYLNSIKNCR [R3P134]
70 |  | HSDAVFTDNYTRLRKQMAAKKYLNSIKNER [R3P136]
100 | 0.3 | HSDAVFTDNYTRLRKQMAAKKYLNSIKNFR [R3P137]
50 | 0.4 | HSDAVFTDNYTRLRKQMAAKKYLNSIKNHR [R3P139]
50 | 0.3 | HSDAVFTDNYTRLRKQMAAKKYLNSIKNIR [R3P140]
3 |  | HSDAVFTDNYTRLRKQMAVKKYLNDLKKGGT [R3P14]
100 |  | HSDAVFTDNYTRLRKQMAAKKYLNSIKNLR [R3P141]
